We go through one substance from patent US20260242467A1.

This assay concerns the target NKG2A (human) (UniProt P26715). The experiment in a line: flow cytometry on primary NK cells, 0 µM mabkine control of the competition assay. (In general: Flow cytometry measures light scatter and fluorescence of single cells or particles in a stream.)
Chain of UniProt P26715 (P26715 whole entry): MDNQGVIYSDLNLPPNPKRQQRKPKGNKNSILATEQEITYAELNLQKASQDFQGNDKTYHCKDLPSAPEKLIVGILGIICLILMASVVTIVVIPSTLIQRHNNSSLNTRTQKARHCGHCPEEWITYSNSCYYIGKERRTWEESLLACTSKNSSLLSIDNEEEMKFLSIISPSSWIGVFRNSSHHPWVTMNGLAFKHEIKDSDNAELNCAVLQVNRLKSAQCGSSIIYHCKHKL

With “anti-NKG2A (S19004C) from Biolegend (antibody)”, the % of CD56+ cells stained (without mabkine) turned out to be 26.5%.
